According to PMC10200313 (ACS chemical biology, 2022):

Molecular target: T1, 6E peptide (14-mer peptide derived from UBC6e, with N-terminal triglycine motif) (Homo sapiens, UniProt Q9Y385)
T1 chain: QADQEAKELARQIS
Test: SPR

B1: Nb6E labeled with biotin (Nb6E-biotin) (VHH)
VHH: QVQLQESGGGLVQPGGSLRLSCAASGFVFENSAMAWYRQAPGKERELIAVIGTTFIKLAESVKGRFTISRDNAKSTVYLQMNNLKPEDTAVYYCSKSGAYWGQGTQVTVSS
  binding result: binds
